Data published in patent US10464978B2, “Peptides and combination of peptides for use in immunotherapy against ovarian cancer and other cancers” (immatics biotechnologies GmbH, priority 2015, dated 2019).

Target: HLA-A*02:01 (Homo sapiens, UniProt P04439, D140Y/D185E/D98H/E176V/E277Q/G131W/G231S/I119V/I121R/I166T/I218V/L300P/L318F/N151K/N90K/P208A/P217A/Q86G/Q94H/R138H/R169H/T345S)
Assay: MHC binding assay: UV-ligand exchange with beta2m ELISA (peptide exchange yield)
Conditions: binding to HLA-A*02:01
How it was run: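 Values give exchange yield, measured by β2m ELISA: 100-fold-diluted monomers bound to streptavidin plates (1h, 37° C), probed with HRP anti-β2m at 2 ug/ml and read at 450 nm after TMB. Monomers came from UV-triggered cleavage of a photolabile peptide and exchange for the test peptide.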

Substance | Peptide exchange (MHC class I binding score, peptide exchange yield)
400 (SLLTEQDLWTV; listed as Homo sapiens) [compound 400] | “++” (≥20% = ++)
298 (VMITKLVEV; listed as Homo sapiens) [compound 298] | “+++” (≥50 = +++)
222 (NLIENVQRL; listed as Homo sapiens) [compound 222] | “++” (≥20% = ++)
385 (SLLEQGLVEA; listed as Homo sapiens) [compound 385] | “++” (≥20% = ++)
59 (IMEDIILTL; listed as Homo sapiens) [compound 59] | “+++” (≥50 = +++)
40 (TLLVKVFSV; listed as Homo sapiens) [compound 40] | “+++” (≥50 = +++)
358 (ALDEYTSEL; listed as Homo sapiens) [compound 358] | “++++” (≥75% = ++++)
262 (LLWGDLIWL; listed as Homo sapiens) [compound 262] | “+++” (≥50 = +++)
307 (ALPVSLPQI; listed as Homo sapiens) [compound 307] | “+++” (≥50 = +++)
134 (YLQELIFSV; listed as Homo sapiens) [compound 134] | “+++” (≥50 = +++)
14 (AAYGGLNEKSFV; listed as Homo sapiens) [compound 14] | “+++” (≥50 = +++)
347 (SLFKHDPAAWEA; listed as Homo sapiens) [compound 347] | “++++” (≥75% = ++++)
246 (LLWEVVSQL; listed as Homo sapiens) [compound 246] | “+++” (≥50 = +++)
242 (AIAYILQGV; listed as Homo sapiens) [compound 242] | “++” (≥20% = ++)
396 (ALLPDLPAL; listed as Homo sapiens) [compound 396] | “+++” (≥50 = +++)
528 (SVAEGRALMSV; listed as Homo sapiens) [compound 528] | “+++” (≥50 = +++)
457 (SLLPGNLVEKV; listed as Homo sapiens) [compound 457] | “+++” (≥50 = +++)
62 (VLLDVSAGQLLM; listed as Homo sapiens) [compound 62] | “++++” (≥75% = ++++)
327 (GLAPFTEGISFV; listed as Homo sapiens) [compound 327] | “+++” (≥50 = +++)
189 (ALQRKLPYV; listed as Homo sapiens) [compound 189] | “+++” (≥50 = +++)
446 (QLIPALAKV; listed as Homo sapiens) [compound 446] | “+++” (≥50 = +++)

Substance | Peptide exchange (MHC class I binding score, peptide exchange yield)
594 (IMLKGDNITL; listed as Homo sapiens) [compound 594] | “+++” (≥50 = +++)
558 (GLLENIPRV; listed as Homo sapiens) [compound 558] | “+++” (≥50 = +++)
464 (ALNDCIYSV; listed as Homo sapiens) [compound 464] | “+++” (≥50 = +++)
401 (ILLDDTGLAYI; listed as Homo sapiens) [compound 401] | “+++” (≥50 = +++)
438 (KLLPLAGLYL; listed as Homo sapiens) [compound 438] | “++++” (≥75% = ++++)
585 (ALWDLAADKQTL; listed as Homo sapiens) [compound 585] | “++++” (≥75% = ++++)
129 (GLLDGGVDILL; listed as Homo sapiens) [compound 129] | “+++” (≥50 = +++)
15 (VLLTFKIFL; listed as Homo sapiens) [compound 15] | “++” (≥20% = ++)
26 (ALLELAEEL; listed as Homo sapiens) [compound 26] | “+++” (≥50 = +++)
142 (FLFATPVFI; listed as Homo sapiens) [compound 142] | “+++” (≥50 = +++)
617 (ALMYESEKVGV; listed as Homo sapiens) [compound 617] | “+++” (≥50 = +++)
379 (IMEGTLTRV; listed as Homo sapiens) [compound 379] | “++” (≥20% = ++)
614 (LLLPDQPPYHL; listed as Homo sapiens) [compound 614] | “+++” (≥50 = +++)
372 (TMLLNIPLV; listed as Homo sapiens) [compound 372] | “++” (≥20% = ++)
305 (SIANFSEFYV; listed as Homo sapiens) [compound 305] | “++++” (≥75% = ++++)
166 (YLNHLEPPV; listed as Homo sapiens) [compound 166] | “+++” (≥50 = +++)
181 (LLWAGTAFQV; listed as Homo sapiens) [compound 181] | “+++” (≥50 = +++)
124 (ALYETELADA; listed as Homo sapiens) [compound 124] | “++” (≥20% = ++)
34 (ILVEADSLWVV; listed as Homo sapiens) [compound 34] | “+++” (≥50 = +++)
210 (LLLNAVLTV; listed as Homo sapiens) [compound 210] | “++” (≥20% = ++)
495 (FIFSEKPVFV; listed as Homo sapiens) [compound 495] | “+++” (≥50 = +++)

Substance | Peptide exchange (MHC class I binding score, peptide exchange yield)
488 (FLAEDPKVTL; listed as Homo sapiens) [compound 488] | “+++” (≥50 = +++)
22 (IMEENPGIFAV; listed as Homo sapiens) [compound 22] | “+++” (≥50 = +++)
185 (FLIDDKGYTL; listed as Homo sapiens) [compound 185] | “++” (≥20% = ++)
207 (GLTSTNAEV; listed as Homo sapiens) [compound 207] | “++” (≥20% = ++)
520 (LAVHPSGVAL; listed as Homo sapiens) [compound 520] | “+” (≥10% = +)
125 (VQIHQVAQV; listed as Homo sapiens) [compound 125] | “+++” (≥50 = +++)
264 (SLQEQLHSV; listed as Homo sapiens) [compound 264] | “+++” (≥50 = +++)
258 (ELAERVPAI; listed as Homo sapiens) [compound 258] | “++” (≥20% = ++)
391 (YVYPQRLNFV; listed as Homo sapiens) [compound 391] | “+++” (≥50 = +++)
342 (HIYDKVMTV; listed as Homo sapiens) [compound 342] | “+++” (≥50 = +++)
55 (SLLDLETLSL; listed as Homo sapiens) [compound 55] | “++++” (≥75% = ++++)
236 (GLLEAKVSL; listed as Homo sapiens) [compound 236] | “+++” (≥50 = +++)
361 (ALYELEGTTV; listed as Homo sapiens) [compound 361] | “+++” (≥50 = +++)
503 (SLNHFTHSV; listed as Homo sapiens) [compound 503] | “+++” (≥50 = +++)
75 (GLLEVMVNL; listed as Homo sapiens) [compound 75] | “+++” (≥50 = +++)
165 (SLLDEIRAV; listed as Homo sapiens) [compound 165] | “+++” (≥50 = +++)
531 (YTLPIASSIRL; listed as Homo sapiens) [compound 531] | “+++” (≥50 = +++)
216 (NLWEDPYYL; listed as Homo sapiens) [compound 216] | “+++” (≥50 = +++)
539 (ALFDAQAQV; listed as Homo sapiens) [compound 539] | “+++” (≥50 = +++)
